Measurements published in IntAct's records for PubMed 29039417.

B1: BBSome complex member BBS4 (Homo sapiens), Q96RK4 (parent)
chain: MAEERVATRTQFPVSTESQKPRQKKAPEFPILEKQNWLIHLHYIRKDYEACKAVIKEQLQETQGLCEYAIYVQALIFRLEGNIQESLELFQTCAVLSPQSADNLKQVARSLFLLGKHKAAIEVYNEAAKLNQKDWEISHNLGVCYIYLKQFNKAQDQLHNALNLNRHDLTYIMLGKIHLLEGDLDKAIEVYKKAVEFSPENTELLTTLGLLYLQLGIYQKAFEHLGNALTYDPTNYKAILAAGSMMQTHGDFDVALTKYRVVACAVPESPPLWNNIGMCFFGKKKYVAAISCLKRANYLAPFDWKILYNLGLVHLTMQQYASAFHFLSAAINFQPKMGELYMLLAVALTNLEDIENAKRAYAEAVHLDKCNPLVNLNYAVLLYNQGEKKNALAQYQEMEKKVSLLKDNSSLEFDSEMVEMAQKLGAALQVGEALVWTKPVKDPKSKHQTTSTSKPASFQQPLGSNQALGQAMSSAAAYRTLPSGAGGTSQFTKPPSLPLEPEPAVESSPTETSEQIREK
partner: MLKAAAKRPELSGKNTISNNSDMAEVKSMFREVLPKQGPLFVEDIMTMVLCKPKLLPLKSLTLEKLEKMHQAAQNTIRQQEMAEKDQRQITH

Variants of: B1
Conditions: with bbip1_human BBIP1, A8MTZ0

Row | Variant | effect of a mutation on the interaction
1 | MAEERVATRTQFPVSTESQKPRQKKAPEFPILEKQNWLIHLHYIRKDYEACKAVIKEQLQETQGLCEYAIYVQALIFRLEGNIQESLELFQTCAVLSPQSADNLKQVARSLFLLGKHKAAIEVYNEAAKLNQKDWEISHNLGVCYIYLKQFNKAQDQLHNALNLNRHDLTYIMLGKIHLLEGDLDKAIEVYKKAVEFSPENTELLTTLGLLYLQLGIYQKAFEHLGNALTYDPTNYKAILAAGSMMQTHGDFDVALTKYRVVACAVPKSPPLWNNIGMCFFGKKKYVAAISCLKRANYLAPFDWKILYNLGLVHLTMQQYASAFHFLSAAINFQPKMGELYMLLAVALTNLEDIENAKRAYAEAVHLDKCNPLVNLNYAVLLYNQGEKKNALAQYQEMEKKVSLLKDNSSLEFDSEMVEMAQKLGAALQVGEALVWTKPVKDPKSKHQTTSTSKPASFQQPLGSNQALGQAMSSAAAYRTLPSGAGGTSQFTKPPSLPLEPEPAVESSPTETSEQIREK [E268K] | with no effect
2 | MAEERVATRTQFPVSTESQKPRQKKAPEFPILEKQNWLIHLHYIRKDYEACKAVIKEQLQETQGLCEYAIYVQALIFRLEGNIQESLELFQTCAVLSPQSADNLKQVARSLFLLGKHKAAIEVYNEAAKLNQKDWEISHNLGVCYIYLKQFNKAQDQLHNALNLNRHDLTYIMLGKIHLLEGDLDKAIEVYKKAVEFSPENTELLTTLGLLYLQLGIYQKAFEHLGNALTYDPTNYKAILAAGSMMQTHGDFDVALTKYRVVACAVPESPPLWNNKGMCFFGKKKYVAAISCLKRANYLAPFDWKILYNLGLVHLTMQQYASAFHFLSAAINFQPKMGELYMLLAVALTNLEDIENAKRAYAEAVHLDKCNPLVNLNYAVLLYNQGEKKNALAQYQEMEKKVSLLKDNSSLEFDSEMVEMAQKLGAALQVGEALVWTKPVKDPKSKHQTTSTSKPASFQQPLGSNQALGQAMSSAAAYRTLPSGAGGTSQFTKPPSLPLEPEPAVESSPTETSEQIREK [I276K] | with no effect
3 | MAEERVATRTQFPVSTESQKPRQKKAPEFPILEKQNWLIHLHYIRKDYEACKAVIKEQLQETQGLCEYAIYVQALIFRLEGNIQESLELFQTCAVLSPQSADNLKQVARSLFLLGKHKAAIEVYNEAAKLNQKDWEISHNLGVCYIYLKQFNKAQDQLHNALNLNRHDLTYIMLGKIHLLEGDLDKAIEVYKKAVEFSPENTELLTTLGLLYLQLGIYQKAFEHLGNALTYDPTNYKAILAAGSMMQTHGDFDVALTKYRVVACAVPESPPLWNNIGMCFFGKKKYVAAISCLKRANYLAPFDWKILYNLGLVHLTMQQYASAFHFLSAAINFQPKMGELYMLLAVALTNLEDIENAKRAYAEAVHLDKCNPLVNENYAVLLYNQGEKKNALAQYQEMEKKVSLLKDNSSLEFDSEMVEMAQKLGAALQVGEALVWTKPVKDPKSKHQTTSTSKPASFQQPLGSNQALGQAMSSAAAYRTLPSGAGGTSQFTKPPSLPLEPEPAVESSPTETSEQIREK [L376E] | with no effect
4 | MAEERVATRTQFPVSTESQKPRQKKAPEFPILEKQNWLIHLHYIRKDYEACKAVIKEQLQETQGLCEYAIYVQALIFRLEGNIQESLELFQTCAVLSPQSADNLKQVARSLFLLGKHKAAIEVYNEAAKLNQKDWEISHNLGVCYIYLKQFNKAQDQLHNALNLNRHDLTYIMLGKIHLLEGDLDKAIEVYKKAVEFSPENTELLTTLGLLYLQLGIYQKAFEHLGNALTYDPTNYKAILAAGSMMQTHGDFDVALTKYRVVACAVPESPPLWNNIGMCFFGKKKYVAAISCLKRANYLAPFDWKILYNLGLVHLTMQQYASAFHFLSAAENFQPKMGELYMLLAVALTNLEDIENAKRAYAEAVHLDKCNPLVNLNYAVLLYNQGEKKNALAQYQEMEKKVSLLKDNSSLEFDSEMVEMAQKLGAALQVGEALVWTKPVKDPKSKHQTTSTSKPASFQQPLGSNQALGQAMSSAAAYRTLPSGAGGTSQFTKPPSLPLEPEPAVESSPTETSEQIREK [I331E] | with no effect
5 | MAEERVATRTQFPVSTESQKPRQKKAPEFPILEKQNWLIHLHYIRKDYEACKAVIKEQLQETQGLCEYAIYVQALIFRLEGNIQESLELFQTCAVLSPQSADNLKQVARSLFLLGKHKAAIEVYNEAAKLNQKDWEISHNLGVCYIYLKQFNKAQDQLHNALNLNRHDLTYIMLGKIHLLEGDLDKAIEVYKKAVEFSPENTELLTTLGLLYLQLGIYQKAFEHLGNALTYDPTNYKAILAAGSMMQTHGDFDVALTKYRVVACAVPESPPLWNNIGMCFFGKKKYVAAISCLKRANYLAPFDWKILYNLGLVHLTMQQYASAFHFLSAAINFQPKMGELYMLLAVALTNLEDIENAKRAYAEAVHLDKCNPLVNLNYAVLLYNQGEKKEALAQYQEMEKKVSLLKDNSSLEFDSEMVEMAQKLGAALQVGEALVWTKPVKDPKSKHQTTSTSKPASFQQPLGSNQALGQAMSSAAAYRTLPSGAGGTSQFTKPPSLPLEPEPAVESSPTETSEQIREK [N390E] | with no effect
6 | MAEERVATRTQFPVSTESQKPRQKKAPEFPILEKQNWLIHLHYIRKDYEACKAVIKEQLQETQGLCEYAIYVQALIFRLEGNIQESLELFQTCAVLSPQSADNLKQVARSLFLLGKHKAAIEVYNEAAKLNQKDWEISHNLGVCYIYLKQFNKAQDQLHNALNLNRHDLTYIMLGKIHLLEGDLDKAIEVYKKAVEFSPENTELLTTLGLLYLQLGIYQKAFEHLGNALTYDPTNYKAILAAGSMMQTHGDFDVALTKYRVVACAVPESPPLWNNIGMCFFGKKKYVAAISCLKRANYLAPFDWKILYNLGLVHLTMQQYASAFHFLSAAINFQPKMGELYMTLAVALTNLEDIENAKRAYAEAVHLDKCNPLVNLNYAVLLYNQGEKKNALAQYQEMEKKVSLLKDNSSLEFDSEMVEMAQKLGAALQVGEALVWTKPVKDPKSKHQTTSTSKPASFQQPLGSNQALGQAMSSAAAYRTLPSGAGGTSQFTKPPSLPLEPEPAVESSPTETSEQIREK [L343T] | disrupting interaction strength
